Values of other authors, collected in PMC6661118.
Like-named read-outs stand apart in the source and are kept apart here.

How the values were obtained:
[1] = biological target: MDM2 (Homo sapiens) (UniProt Q00987)
[2] = biological target: MDM2 (Homo sapiens) (UniProt Q00987); remark: listed apart in the source

Chain of MDM2 (Homo sapiens) (Q00987 whole entry): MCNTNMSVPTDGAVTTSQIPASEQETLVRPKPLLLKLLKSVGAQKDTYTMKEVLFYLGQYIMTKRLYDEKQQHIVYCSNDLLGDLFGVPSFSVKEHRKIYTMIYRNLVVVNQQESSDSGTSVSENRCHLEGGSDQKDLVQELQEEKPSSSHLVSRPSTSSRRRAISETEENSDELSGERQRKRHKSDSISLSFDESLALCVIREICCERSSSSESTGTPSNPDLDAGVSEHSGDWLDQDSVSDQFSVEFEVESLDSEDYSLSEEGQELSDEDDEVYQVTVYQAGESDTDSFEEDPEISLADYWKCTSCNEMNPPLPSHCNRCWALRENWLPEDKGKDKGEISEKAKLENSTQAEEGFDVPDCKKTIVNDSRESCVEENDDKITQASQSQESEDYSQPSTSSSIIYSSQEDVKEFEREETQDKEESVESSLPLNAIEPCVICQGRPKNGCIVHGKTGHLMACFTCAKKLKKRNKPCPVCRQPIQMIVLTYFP

Kd [1] [nM]	Kd [2] [nM]	Substance
410	–	p53 (from UniProt P04637)
–	55	p53-SAH-8 (from UniProt P04637)
